Data published in paper PMC3792671.

Biological target: RepSTK1(1-269), residues 1-269 of the rolling-circle replication initiator protein RepSTK1 of plasmid pSTK1 (Geobacillus stearothermophilus (plasmid pSTK1))
Experiment: SEC-MALS; analytical gel filtration on Superdex S75 10/300, 50 µl protein loaded, 50 mM Tris-HCl pH 7.5, 500 mM KCl; eluate through DAWN HELIOS II MALLS detector; dimer

stoichiometry N: 2
Substance: RepSTK1(1-269), residues 1-269 of the rolling-circle replication initiator protein RepSTK1 of plasmid pSTK1 (domain or fragment)
